# Data: patent publication US20170165337A1 (IMMATICS BIOTECHNOLOGIES, published 2017)
# Target: T1, HLA-A*02:01 (human)
# T1 construct: MHC class I monomer of the UV-ligand exchange assay; also called peptide-receptive MHC molecules; MHC class I
# Assay: UV peptide-exchange ELISA
# Method in brief: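 Peptide-MHC complexes formed by UV-mediated exchange of a UV-cleavable peptide for the test peptide; exchange yield quantified by β2m ELISA. Diluted 100-fold, captured on streptavidin-coated plates 1 h at 37 °C, detected with HRP anti-β2m and TMB at 450 nm against refolded HLA-A*02:01 monomer standards (15-500 ng/ml).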
row,peptide exchange yield,Binder
1,50 to 75%,AAALIIHHV
2,50 to 75%,RLDYITAEI
3,50 to 75%,ILLGIQELL
4,20 to 50%,KLKDRLPSI
5,50 to 75%,NLLDPGSSYLL
6,50 to 75%,ILQDLTFVHL
7,50 to 75%,ILLNEDDLVTI
8,50 to 75%,ILQPMDIHV
9,50 to 75%,VLDELPPLI
10,50 to 75%,NLWSVDGEVTV
11,20 to 50%,TLTDEQFLV
12,50 to 75%,ILEENIPVL
13,50 to 75%,ILGDILLKV
14,50 to 75%,ILEEQPMDMLL
15,50 to 75%,SLVEAQGWLV
16,≥ 75%,GVATAGCVNEV
17,10 to 20%,LAIVPVNTL
18,≥ 75%,FLWEEKFNSL
19,50 to 75%,TVLPVPPLSV
20,50 to 75%,LLVQEPDGLMV
21,50 to 75%,NLLDDRGMTAL
22,50 to 75%,GLAESTGLLAV
23,50 to 75%,AVLGLVWLL
24,50 to 75%,ELLEGSEIYL
25,50 to 75%,AMAGDVVYA

row,peptide exchange yield,Binder
1,50 to 75%,FLVEPQEDTRL
2,50 to 75%,VLLFIEHSV
3,50 to 75%,QLIPKLIFL
4,20 to 50%,AVLHLLLSV
5,50 to 75%,ILQALAVHL
6,50 to 75%,YLFEEAISM
7,20 to 50%,VMILKLPFL
8,50 to 75%,SLWNAGTSV
9,50 to 75%,LLRDGIELV
10,50 to 75%,ALLQKLQQL
11,≥ 75%,KIMDYSLLLGV
12,50 to 75%,YLDDLLPKL
13,50 to 75%,LLPTGVFQV
14,50 to 75%,TLLDWQDSL
15,50 to 75%,LLLTKPTEA
16,20 to 50%,VIRNIVEAA
17,50 to 75%,AVLLVLPLV
18,50 to 75%,ILLNPAYDVYL
19,50 to 75%,ILSQPTPSL
20,50 to 75%,ILPTLEKELFL
21,50 to 75%,RLLDEQFAVL
22,20 to 50%,ATYSGLESQSV
23,50 to 75%,YTLDSLYWSV
24,20 to 50%,VVAEELENV
25,20 to 50%,VIAELPPKV

row,peptide exchange yield,Binder
1,50 to 75%,IILPVEVEV
2,20 to 50%,KTVEPPISQV
3,50 to 75%,ALDIMIPMV
4,20 to 50%,FIAPTGHSL
5,50 to 75%,VLGEYSYLL
6,50 to 75%,YMAPEVVEA
7,50 to 75%,TLLQVFHLL
8,50 to 75%,FLLEDLSQKL
9,≥ 75%,ALLDQLHTLL
10,50 to 75%,TILDYINVV
11,50 to 75%,LLFPQIEGIKI
12,50 to 75%,TLLADDLEIKL
13,50 to 75%,VLLEYHIAYL
14,50 to 75%,SQWEDIHVV
15,50 to 75%,AASPIITLV
16,50 to 75%,QLLPVSNVVSV
17,50 to 75%,VLNDGAPNV
18,20 to 50%,KLDETGVAL
19,20 to 50%,LLSAAEPVPA
20,50 to 75%,SLDDVEGMSV
21,50 to 75%,LLYDNVPGA
22,50 to 75%,AVLQAVTAV
23,20 to 50%,TLLDQLDTQL
